Kd data for three molecules are collected here from PMC7988490, “Molecular insights into replication initiation in a multipartite genome harboring bacterium Deinococcus radiodurans” (The Journal of Biological Chemistry, 2020).

In data set [1] the target is T1, drDnaB (DnaB) (Deinococcus radiodurans R1 (ATCC13939)) (UniProt Q9RWW6).
T1 sequence: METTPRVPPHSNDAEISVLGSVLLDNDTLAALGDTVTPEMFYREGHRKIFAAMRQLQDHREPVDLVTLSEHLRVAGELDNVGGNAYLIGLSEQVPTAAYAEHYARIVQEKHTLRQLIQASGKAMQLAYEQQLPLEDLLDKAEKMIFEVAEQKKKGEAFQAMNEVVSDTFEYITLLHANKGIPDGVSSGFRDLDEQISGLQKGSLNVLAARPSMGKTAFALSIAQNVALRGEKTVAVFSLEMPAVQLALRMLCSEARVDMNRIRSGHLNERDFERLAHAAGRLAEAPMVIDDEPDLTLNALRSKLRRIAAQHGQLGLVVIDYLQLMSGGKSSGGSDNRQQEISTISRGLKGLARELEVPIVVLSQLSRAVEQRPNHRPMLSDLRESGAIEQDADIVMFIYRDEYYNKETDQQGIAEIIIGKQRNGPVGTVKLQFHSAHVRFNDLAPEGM
Description: EMSA. Particulars: nonspecific, EMSA: 50 mM Tris-HCl pH 8.0, 75 mM KCl, 5 mM MgSO4, 0.1 mM DTT, ~30 nM 32P-DNA, 37 C 15 min. (In general: A gel shift assay detects complexes by their altered migration in electrophoresis.)

The target in data set [2] is T2, recombinant drDnaA, purified (D. radiodurans, UniProt Q9RYE7 1-466).
T2 construct: DnaA of Deinococcus radiodurans, DR_0002
T2 sequence (looked up): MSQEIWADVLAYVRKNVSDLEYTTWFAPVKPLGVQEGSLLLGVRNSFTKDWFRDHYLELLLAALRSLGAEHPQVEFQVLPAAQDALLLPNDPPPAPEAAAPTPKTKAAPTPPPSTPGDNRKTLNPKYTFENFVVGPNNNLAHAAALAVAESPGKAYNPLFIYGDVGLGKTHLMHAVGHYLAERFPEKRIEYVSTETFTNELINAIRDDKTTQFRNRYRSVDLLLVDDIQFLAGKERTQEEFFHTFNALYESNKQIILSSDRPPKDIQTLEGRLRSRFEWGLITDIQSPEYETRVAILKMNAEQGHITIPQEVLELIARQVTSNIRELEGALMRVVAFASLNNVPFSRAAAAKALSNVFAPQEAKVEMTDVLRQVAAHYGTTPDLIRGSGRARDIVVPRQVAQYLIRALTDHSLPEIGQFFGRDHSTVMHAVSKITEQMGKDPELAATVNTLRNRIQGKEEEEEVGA
The experiment in a line: SPR; 20 μM PprA immobilised on a bare gold sensor chip by EDC-NHS at 20 °C (~200 response units); 4–20 μM drDnaA or drDnaB incubated with 1 mM ATP and 1 mM MgCl2 in the mobile phase; 20 mM Tris pH 7.6; Autolab Esprit. As to conditions: both partners purified.

The target in data set [3] is T3, recombinant drDnaB, purified (D. radiodurans, UniProt Q9RWW6 1-448).
T3 construct: DnaB of Deinococcus radiodurans, DR_0549; the drdnaB gene was PCR amplified from genomic DNA of D. radiodurans R1 and cloned in pET28a(+) at BamHI and EcoRI
T3 sequence (looked up): T1 sequence
The data set is described as above. As to conditions: both partners purified.

Data set [4] concerns the target T4, drDnaB (DnaB) (Deinococcus radiodurans R1 (ATCC13939), UniProt Q9RWW6 1-448).
T4 sequence: T1 sequence
The experiment in a line: EMSA; no ATP; EMSA: 50 mM Tris-HCl pH 8.0, 75 mM KCl, 5 mM MgSO4, 0.1 mM DTT, +/- 1 mM ATP, ~30 nM 32P-DNA, 37 C 15 min. Particulars: protein: recombinant; tags: N-terminal 6xHis (pET28a); chain copies: 6; label: 32P 5' end.

The target of data set [5] is T4, drDnaB (DnaB). Description: EMSA; ATPgS; EMSA: 50 mM Tris-HCl pH 8.0, 75 mM KCl, 5 mM MgSO4, 0.1 mM DTT, +/- 1 mM ATP, ~30 nM 32P-DNA, 37 C 15 min. Particulars: protein: recombinant; tags: N-terminal 6xHis (pET28a); chain copies: 6; label: 32P 5' end.
In data set [6] the target is T4, drDnaB (DnaB). The experiment in a line: EMSA; 1 mM ATP; EMSA: 50 mM Tris-HCl pH 8.0, 75 mM KCl, 5 mM MgSO4, 0.1 mM DTT, +/- 1 mM ATP, ~30 nM 32P-DNA, 37 C 15 min. Particulars: protein: recombinant; tags: N-terminal 6xHis (pET28a); chain copies: 6; label: 32P 5' end.

For orientation: Kd means the equilibrium constant for the complex coming apart. On to oriCI 500 bp (13 DnaA boxes), for which the Kd in data set [1] (1 mM ATP) worked out at 8230 nM; in data set [1] (no ATP, +/- 1 mM ATP) it was 8890 nM.

B1: recombinant PprA (histidine-tagged PprA, His-PprA), purified (natural protein, D. radiodurans, UniProt O32504 1-300, looked up)
chain: MLPLAFLICSGHNKGSMARAKAKDQTDGIYAAFDTLMSTAGVDSQIAALAASEADAGTLDAALTQSLQEAQGRWGLGLHHLRHEARLTDDGDIEILTDGRPSARVSEGFGALAQAYAPMQALDERGLSQWAALGEGYRAPGDLPLAQLKVLIEHARDFETDWSAGRGETFQRVWRKGDTLFVEVARPASAEAALSDAAWDVIASIKDRAFQRELMRRSEKDGMLGALLGARHAGAKANLAQLPEAHFTVQAFVQTLSGAAARNAEEYRAALKTAAAALEEYQGVTTRQLSEVLRHGLRES
Consider B1, for which the Kd in data set [2] worked out at 541 nM; in data set [3] it was 971 nM.
As for GGAATTCCAATGAACCGCAAAACCGCAAAAACCGTACCGA (ssDNA) [ssDNA oligo 99F (40 nt)], the Kd with drDnaB (DnaB) [4] is 3110 ± 110 nM; with drDnaB (DnaB) [5], 1020 ± 60 nM; in the data set with drDnaB (DnaB) [6] it was 1420 ± 50 nM.
